As a reminder, the Kd is the free concentration of one partner at which half of the binding sites on the other are occupied at equilibrium, for simple one-to-one binding. Low values mean tighter binding, high ones weaker binding.

This note sets out measurements from paper PMC10786891, “Massively parallel profiling of RNA-targeting CRISPR-Cas13d”.

Positions count from the first letter of the chain named. Numbers in names are those of the source.

The labels stand for the following.
B1: target 1 insA 3' of 10,insA 3' of 8 (mixed)
RNA 1: CACCCGUGCAAAAAUGCAGGGGUCUAAAACUGAGCGGAUAACCUCUCUAUGG
RNA 2: GGGAAUGGAUCCACAUCUACGAAUUCGUACCAUAGAGAGGUUAAUACCGCUCACCGAGAUCGGAAGAGCACACGU
B2: target 1 C4G,U11A (mixed)
RNA 1: B1 RNA 1
RNA 2: GGGAAUGGAUCCACAUCUACGAAUUCGUACCAUAGAGAGGAUAUCCGGUCACCGAGAUCGGAAGAGCACACGU
B3: target 1 C4A,U19A (mixed)
RNA 1: B1 RNA 1
RNA 2: B2 RNA 2 with U33A, A41U, G48A
B4: target 1 A9G,G12C (mixed)
RNA 1: B1 RNA 1
RNA 2: B2 RNA 2 with G40C, A41U, A43G, G48C
B5: target 1 insU 3' of 12,insU 3' of 7 (mixed)
RNA 1: B1 RNA 1
RNA 2: B1 RNA 2 with A43U, A46C, C47U
B6: target 1 insU 3' of 21,insC 3' of 18 (mixed)
RNA 1: B1 RNA 1
RNA 2: GGGAAUGGAUCCACAUCUACGAAUUCGUACCUAUACGAGAGGUUAUCCGCUCACCGAGAUCGGAAGAGCACACGU
B7: target 1 insC 3' of 19,insU 3' of 12 (mixed)
RNA 1: B1 RNA 1
RNA 2: B6 RNA 2 with U32A, A33U, U34C, C36G, G37A, A38G, G39A, A40G, G42U
B8: target 1 insC 3' of 11,insA 3' of 3 (mixed)
RNA 1: B1 RNA 1
RNA 2: B1 RNA 2 with U42C, A43U, A46C, C48G, G49C, C50U, U51A
B9: target 1 del4,del15 (mixed)
RNA 1: B1 RNA 1
RNA 2: GGGAAUGGAUCCACAUCUACGAAUUCGUACCAUAGAAGGUUAUCCGUCACCGAGAUCGGAAGAGCACACGU
B10: target 1 A9G,A14U (mixed)
RNA 1: B1 RNA 1
RNA 2: B2 RNA 2 with A38U, A41U, A43G, G48C
B11: target 1 insA 3' of 17,insA 3' of 13 (mixed)
RNA 1: B1 RNA 1
RNA 2: B1 RNA 2 with G37A, A38G, G39A, U41A, U42G, A43U, A44U, U45A, A46U
B12: target 1 A1G,G15U (mixed)
RNA 1: B1 RNA 1
RNA 2: B2 RNA 2 with G37U, A41U, G48C, A51G
B13: target 1 A16G,C22U (mixed)
RNA 1: B1 RNA 1
RNA 2: B2 RNA 2 with C30U, A36G, A41U, G48C
B14: target 1 insC 3' of 22,insC 3' of 19 (mixed)
RNA 1: B1 RNA 1
RNA 2: B6 RNA 2 with U32C, A35C, C36A
B15: target 1 G15U (mixed)
RNA 1: B1 RNA 1
RNA 2: B2 RNA 2 with G37U, A41U, G48C
B16: target 1 del7,del18 (mixed)
RNA 1: B1 RNA 1
RNA 2: B9 RNA 2 with A34G, G35A, A36G, C45G, G46C
B17: target 1 insG 3' of 19,insC 3' of 13 (mixed)
RNA 1: B1 RNA 1
RNA 2: B6 RNA 2 with U32A, A33U, U34G, C36G, G37A, A38G, G39A, A40G, G41C
B18: target 1 C7A,G17A (mixed)
RNA 1: B1 RNA 1
RNA 2: B2 RNA 2 with G35A, A41U, C45A, G48C
B19: target 1 insG 3' of 18,insG 3' of 11 (mixed)
RNA 1: B1 RNA 1
RNA 2: B1 RNA 2 with A36G, G37A, A38G, G39A, U41G, A43G, A44U, U45A, A46U
B20: target 1 insC 3' of 12,insU 3' of 12 (mixed)
RNA 1: B1 RNA 1
RNA 2: B1 RNA 2 with U41C, A43U, A44U, U45A, A46U
B21: target 1 insA 3' of 22,insU 3' of 1 (mixed)
RNA 1: B1 RNA 1
RNA 2: GGGAAUGGAUCCACAUCUACGAAUUCGUACACAUAGAGAGGUUAUCCGCUCAUCCGAGAUCGGAAGAGCACACGU
B22: target 1 G15C (mixed)
RNA 1: B1 RNA 1
RNA 2: B2 RNA 2 with G37C, A41U, G48C
B23: target 1 A18U,U19A (mixed)
RNA 1: B1 RNA 1
RNA 2: B2 RNA 2 with U33A, A34U, A41U, G48C
B24: target 1 insU 3' of 18,insG 3' of 6 (mixed)
RNA 1: B1 RNA 1
RNA 2: B1 RNA 2 with G35U, A36G, G37A, A38G, G39A, U41G, A43U, A46C, C48G
B25: target 1 insC 3' of 5,insU 3' of 4 (mixed)
RNA 1: B1 RNA 1
RNA 2: B1 RNA 2 with A44U, U45C, A46C, C47G, G49C, C50U
B26: target 1 U19G,C22U (mixed)
RNA 1: B1 RNA 1
RNA 2: B2 RNA 2 with C30U, U33G, A41U, G48C
B27: target 1 insA 3' of 11,insA 3' of 2 (mixed)
RNA 1: B1 RNA 1
RNA 2: B1 RNA 2 with U42A, A43U, A46C, C48G, G49C, C50U, U51C, C52A
B28: target 1 insC 3' of 13,insU 3' of 4 (mixed)
RNA 1: B1 RNA 1
RNA 2: B1 RNA 2 with G40C, U41G, A43U, A46C, C48G, G49C, C50U
B29: target 1 insU 3' of 20,insA 3' of 11 (mixed)
RNA 1: B1 RNA 1
RNA 2: B6 RNA 2 with U32A, A33U, C36G, G37A, A38G, G39A, A40G, G42U, U43A
B30: target 1 C7A,U10G (mixed)
RNA 1: B1 RNA 1
RNA 2: B2 RNA 2 with A41U, U42G, C45A, G48C
B31: target 1 insA 3' of 4,insG 3' of 1 (mixed)
RNA 1: B1 RNA 1
RNA 2: B1 RNA 2 with A44U, U45C, A46C, C47G, G49A, C50U, U51C, C52A, A53G

This series has as its target T1, EsCas13d, nuclease-dead (Eubacterium siraeum, UniProt B0MS50, R295A;H300A;R849A;H854A).
T1 sequence: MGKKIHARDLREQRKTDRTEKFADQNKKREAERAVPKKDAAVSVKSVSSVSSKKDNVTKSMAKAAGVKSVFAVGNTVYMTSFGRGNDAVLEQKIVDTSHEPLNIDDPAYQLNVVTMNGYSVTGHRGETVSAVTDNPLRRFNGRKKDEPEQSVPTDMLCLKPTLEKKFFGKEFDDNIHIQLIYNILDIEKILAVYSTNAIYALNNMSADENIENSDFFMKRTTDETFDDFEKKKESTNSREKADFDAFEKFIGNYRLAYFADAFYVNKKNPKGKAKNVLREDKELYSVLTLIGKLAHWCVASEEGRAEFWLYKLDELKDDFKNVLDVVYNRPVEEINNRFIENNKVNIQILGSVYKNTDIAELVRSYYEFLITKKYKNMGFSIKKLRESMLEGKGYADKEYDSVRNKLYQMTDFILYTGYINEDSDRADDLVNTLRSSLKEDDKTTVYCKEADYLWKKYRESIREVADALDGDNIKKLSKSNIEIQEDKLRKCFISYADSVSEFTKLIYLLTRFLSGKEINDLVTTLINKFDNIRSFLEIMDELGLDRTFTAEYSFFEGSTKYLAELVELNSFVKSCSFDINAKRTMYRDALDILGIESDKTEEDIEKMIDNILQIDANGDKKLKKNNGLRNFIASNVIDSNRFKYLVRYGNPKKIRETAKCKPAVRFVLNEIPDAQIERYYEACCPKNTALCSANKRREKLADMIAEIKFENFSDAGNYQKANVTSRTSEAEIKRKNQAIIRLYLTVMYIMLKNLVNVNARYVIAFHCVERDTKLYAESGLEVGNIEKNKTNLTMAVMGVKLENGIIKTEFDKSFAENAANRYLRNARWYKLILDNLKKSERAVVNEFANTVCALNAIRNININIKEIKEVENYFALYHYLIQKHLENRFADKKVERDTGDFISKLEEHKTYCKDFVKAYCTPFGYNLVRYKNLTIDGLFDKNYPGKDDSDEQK
The experiment in a line: crRNA (strand 1, pre-loaded); Mg2+; 40 mM Tris-HCl pH 7.5, 150 mM NaCl, 6 mM MgCl2, 1 mM DTT, 0.1% Tween-20, 0.2 mg/ml BSA; 25 C; 10 min per concentration, then washed. Conditions: tags: His6-TwinStrep-SUMO cleaved; N-terminal SNAP kept (SNAP-Surface 488); label: 3' end held by stalled T7 RNA polymerase.
Turning to B1, the Kd was found to be 11.3 ± 0.4 nM.
Molecule B2 had a Kd of 9 ± 1 nM.
In the case of B3, the Kd was found to be 68 ± 15 nM.
B4 returned a Kd of 9.7 ± 0.4 nM. Against the preceding molecule, the Kd is about 7-fold lower.
On to B5, for which the Kd amounted to 16.2 ± 0.6 nM.
Regarding B6, the Kd was determined as 52 ± 6 nM.
The value for B7 was 30.6 ± 3.2 nM.
The value for B8 was 27.4 ± 2 nM.
The molecule B9 displayed a Kd of 56 ± 13 nM.
The value for B10 was 65 ± 18 nM; that for B11 was 10 ± 0.7 nM; that for B12 was 23 ± 4 nM.
Take B13: the affinity, expressed as Kd, was 54 ± 12 nM. Compared with the last molecule, the Kd is about 2.3-fold higher.
For B14, the dissociation constant Kd was about 70 nM.
Turning to B15, the Kd worked out at 18.6 ± 1.1 nM.
For B16, binding was put at a Kd of 58 ± 6 nM.
The molecule B17 registered a Kd of 68 ± 12 nM.
As to B18, binding was characterised by a dissociation constant (Kd) of 51 ± 5 nM.
The value for B19 was 92 ± 24 nM.
As for B20, the Kd is 10.2 ± 0.8 nM. This Kd is about 9-fold lower than that of the molecule before.
The value for B21 was 15 ± 0.9 nM.
With B22, binding was put at a Kd of 47.2 ± 3.4 nM.
B23 came in with an equilibrium dissociation constant (Kd) of 42 ± 7 nM.
Under B24 stands 33.2 ± 2.9 nM; under B25, 15.7 ± 1.3 nM; under B26, 74 ± 16 nM.
The molecule B27 gave a Kd of 16.1 ± 1.2 nM.
For the molecule B28, the affinity, expressed as Kd, was 8.1 ± 0.4 nM. This Kd lies about 2-fold lower than the previous one.
The value for B29 was 29.6 ± 2.6 nM; that for B30 was 9.7 ± 0.5 nM.
The molecule B31 gave a Kd of 5.2 ± 0.4 nM.
